Measurements: patent publication US20190085311

B1: D160S/K196S + N107W + E106G (protein)
chain: QAKPQIPKDKSKVAGYIEIPDADIKEPVYPGPATPEQLNRGVSFAEGWESLDDQNISIAGHTFIDRPNYQFTNLKAAKKGSMVYFKVGNETRKYKMTSIRSVKPTDVGVLDEQKGKDKQLTLITCDDYNEKTGVWESRKIFVATEVK
B2: D160S/K196S + N107W + F144L (protein)
chain: QAKPQIPKDKSKVAGYIEIPDADIKEPVYPGPATPEQLNRGVSFAEEWESLDDQNISIAGHTFIDRPNYQFTNLKAAKKGSMVYLKVGNETRKYKMTSIRSVKPTDVGVLDEQKGKDKQLTLITCDDYNEKTGVWESRKIFVATEVK
B3: D160S/K196S + N107W + F144L + G167E (protein)
chain: QAKPQIPKDKSKVAGYIEIPDADIKEPVYPGPATPEQLNRGVSFAEEWESLDDQNISIAGHTFIDRPNYQFTNLKAAKKGSMVYLKVGNETRKYKMTSIRSVKPTDVEVLDEQKGKDKQLTLITCDDYNEKTGVWESRKIFVATEVK
B4: D160S/K196S + F144L (protein)
chain: QAKPQIPKDKSKVAGYIEIPDADIKEPVYPGPATPEQLNRGVSFAEENESLDDQNISIAGHTFIDRPNYQFTNLKAAKKGSMVYLKVGNETRKYKMTSIRSVKPTDVGVLDEQKGKDKQLTLITCDDYNEKTGVWESRKIFVATEVK
B5: D160S/K196S + G167E (protein)
chain: QAKPQIPKDKSKVAGYIEIPDADIKEPVYPGPATPEQLNRGVSFAEENESLDDQNISIAGHTFIDRPNYQFTNLKAAKKGSMVYFKVGNETRKYKMTSIRSVKPTDVEVLDEQKGKDKQLTLITCDDYNEKTGVWESRKIFVATEVK
B6: D160S/K196S + N107W + G167E (protein)
chain: QAKPQIPKDKSKVAGYIEIPDADIKEPVYPGPATPEQLNRGVSFAEEWESLDDQNISIAGHTFIDRPNYQFTNLKAAKKGSMVYFKVGNETRKYKMTSIRSVKPTDVEVLDEQKGKDKQLTLITCDDYNEKTGVWESRKIFVATEVK
B7: D160S/K196S + A61T (protein)
chain: QTKPQIPKDKSKVAGYIEIPDADIKEPVYPGPATPEQLNRGVSFAEENESLDDQNISIAGHTFIDRPNYQFTNLKAAKKGSMVYFKVGNETRKYKMTSIRSVKPTDVGVLDEQKGKDKQLTLITCDDYNEKTGVWESRKIFVATEVK
B8: D160S/K196S + F144L + G167E (protein)
chain: QAKPQIPKDKSKVAGYIEIPDADIKEPVYPGPATPEQLNRGVSFAEENESLDDQNISIAGHTFIDRPNYQFTNLKAAKKGSMVYLKVGNETRKYKMTSIRSVKPTDVEVLDEQKGKDKQLTLITCDDYNEKTGVWESRKIFVATEVK
B9: D160S/K196S + A61E (protein)
chain: QEKPQIPKDKSKVAGYIEIPDADIKEPVYPGPATPEQLNRGVSFAEENESLDDQNISIAGHTFIDRPNYQFTNLKAAKKGSMVYFKVGNETRKYKMTSIRSVKPTDVGVLDEQKGKDKQLTLITCDDYNEKTGVWESRKIFVATEVK
B10: D160S/K196S + N107W (protein)
chain: QAKPQIPKDKSKVAGYIEIPDADIKEPVYPGPATPEQLNRGVSFAEEWESLDDQNISIAGHTFIDRPNYQFTNLKAAKKGSMVYFKVGNETRKYKMTSIRSVKPTDVGVLDEQKGKDKQLTLITCDDYNEKTGVWESRKIFVATEVK
B11: D160S/K196S + E106G (protein)
chain: QAKPQIPKDKSKVAGYIEIPDADIKEPVYPGPATPEQLNRGVSFAEGNESLDDQNISIAGHTFIDRPNYQFTNLKAAKKGSMVYFKVGNETRKYKMTSIRSVKPTDVGVLDEQKGKDKQLTLITCDDYNEKTGVWESRKIFVATEVK
B12: Reference 2: P94R/D160N/D165A/G167E/K190E/K196T from U.S. Pat. No. 9,267,127 (SEQ ID NO: 52) (protein)
chain: MQAKPQIPKDKSKVAGYIEIPDADIKEPVYPGPATREQLNRGVSFAEENESLDDQNISIAGHTFIDRPNYQFTNLKAAKKGSMVYFKVGNETRKYKMTSIRNVKPTAVEVLDEQKGKDKQLTLITCDDYNEETGVWEKRKIFVATEVK

Target: glucose dehydrogenase containing the LPETG motif

Point of comparison: B7, “relative apparent “Km” for LPXTG” value 97%. Against it:
- B1 — higher, 107%
- B2 — higher, 134%
- B3 — higher, 197%
- B4 — higher, 100%
- B5 — higher, 131%
- B6 — higher, 166%
- B8 — higher, 166%
- B9 — higher, 100%
- B10 — higher, 121%
- B11 — higher, 121%

B12 was tested, and the “relative apparent “Km” for LPXTG” value was “lower”.
